Test results published in publication PMC10681800, “Structural and functional investigation of GajB protein in Gabija anti-phage defense” (Nucleic Acids Research, 2023).
“And” between values parts separate entries of the source, which are not always exact repeats. Equal entries are not always repeated.

B1: GajA of the Gabija anti-phage defense system of Bacillus cereus VD045, with a C-terminal (His)6 tag, purified on its own (enzyme, UniProt J8H9C1 1-578, looked up)
chain: MKFSNITIKNFRNFEKVNINLDNKNVIFGMNDIGKTNFLYALRFLLDKEIRKFGFNKSDYHKHDTSKKIEIILTLDLSNYEKDEDTKKLISVVKGARTSANADVFYIALESKYDDKELYGNIILKWGSELDNLIDIPGRGNINALDNVFKVIYINPLVDLDKLFAQNKKYIFEESQGNESDEGILNNIKSLTDQVNQQIGEMTIIKGFQQEITSEYRSLKKEEVSIELKSEMAIKGFFSDIIPYIKKDGDSNYYPTSGDGRRKMLSYSIYNYLAKKKYEDKIVIYLIEEPEISLHRSMQIALSKQLFEQSTYKYFFLSTHSPELLYEMDNTRLIRVHSTEKVVCSSHMYNVEEAYGSVKKKLNKALSSALFAERVLLIEGPSEKILFEKVLDEVEPEYELNGGFLLEVGGTYFNHYVCTLNDLGITHIIKTDNDLKSKKGKKGVYELLGLNRCLNLLGRENLDEITIDIPEDIKGKKKKERLNERKKEIFKQYKNEVGEFLGERIYLSEIDLENDLYSAIGESMKRIFENEDPVHYLQKSKLFNMVELVNNLSTKDCFDVFEHEKFACLKELVGSDRG
notes: GajA, Bacillus cereus VD045, synthetic gene in pET21a; 67.0 kDa as printed; Tetramer by SEC-MALS and analytical SEC; also called individually purified GajA; separately purified GajA; source: E. coli BL21(DE3), purified (HisTrap HP, SEC Superdex 200)
B2: GajB of the Gabija anti-phage defense system of Bacillus cereus VD045, purified on its own, (His)6-MBP tag cleaved by TEV protease (natural protein)
chain: MSREQIIKDGGNILVTAGAGSGKTTILVSKIEADLKENKTHYSIAAVTFTNKAAKEIEGRLGYSSRGNFIGTNDGFVESEIIRPFIKDAFGNDYPDNFTAEYFDNQFASYDKGLQVLKYQNILGTYSNPKKNFKFQLALDILKKSLVARQYIFSKYFKIFIDEYQDSDKDMHNLFMYLKDQLKIKLFIVGDPKQSIYIWRGAEPENFNGLIENSTDFNKYHLTSNFRCCQDIQNYSNLFNEETRSLIKEKNEVQNVISIADDMPISDILLKLTEEKQVLNIEAELVILVRRRNQAIEIMKELNEEGFNFIFIPQTPLDRATPNATLLKEVIKYVKNDRYSIYDLAAEIVGNLSSREIKEIQKIINELLVPNINQVLINQVLINLFAKLEITLDTREITAFTEVMMTNEFDIAFDTNEYLHKIFTVHSAKGLEFNQVIITASDYNVHYNRDTNEHYVATTRAKDKLIVIMDNKKYSDYIETLMKELKIKNIIKSI
notes: GajB, Bacillus cereus VD045, synthetic gene in pET28a with (His)6-MBP and a TEV site; 57.1 kDa as printed; the subdomains of the crystal structure span residues 1-494; the shorter of the two GajB forms that the discussion tells of (the long form has five more N-terminal residues); Monomer by SEC-MALS and analytical SEC; also called individually purified GajB; separately purified GajB; source: E. …

Experiments:
[1] = biological target: B2; assay: ITC; 4°C; 20 μM GajB in the cell titrated with 20 injections of 2 μl of 200 μM GajA; 300 mM NaCl, 1 mM TCEP, 10% glycerol, 20 mM HEPES pH 7.5; triplicate; conditions: both partners purified
[2] = biological target: the molecule itself; assay: SEC-MALS + SEC; each protein alone; Superdex 200 Increase 10/300 GL with miniDAWN/Optilab, 300 mM NaCl, 2 mM DTT, 5% glycerol, 20 mM HEPES pH 7.5, 20 μM, 25 °C; analytical SEC in the same buffer
[3] = biological target: T1, GajB of the Gabija anti-phage defense system of Bacillus cereus VD045, purified on its own, (His)6-MBP tag … (Bacillus cereus VD045, UniProt J8HQ06 1-494); assay: ITC
T1 chain: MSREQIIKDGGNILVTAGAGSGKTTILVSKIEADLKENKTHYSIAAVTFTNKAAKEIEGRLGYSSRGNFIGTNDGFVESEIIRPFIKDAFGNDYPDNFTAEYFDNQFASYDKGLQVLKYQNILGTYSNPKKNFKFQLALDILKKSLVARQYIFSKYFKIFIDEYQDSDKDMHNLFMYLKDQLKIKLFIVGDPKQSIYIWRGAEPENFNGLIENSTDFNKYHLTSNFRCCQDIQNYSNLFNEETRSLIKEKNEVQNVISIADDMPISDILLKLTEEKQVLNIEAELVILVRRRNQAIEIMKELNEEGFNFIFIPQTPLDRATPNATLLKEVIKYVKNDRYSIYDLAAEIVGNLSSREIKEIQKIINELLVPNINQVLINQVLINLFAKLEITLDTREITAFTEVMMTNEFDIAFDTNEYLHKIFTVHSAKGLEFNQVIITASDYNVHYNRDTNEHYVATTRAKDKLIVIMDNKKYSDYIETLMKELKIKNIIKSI

[4] = biological target: B1; assay: ITC; 4°C; 20 μM GajB in the cell titrated with 20 injections of 2 μl of 200 μM GajA; 300 mM NaCl, 1 mM TCEP, 10% glycerol, 20 mM HEPES pH 7.5; triplicate; conditions: both partners purified
[5] = biological target: B1; assay: SEC; analytical SEC, Superdex 200 10/300 GL; 300 mM NaCl, 2 mM DTT, 5% glycerol, 20 mM HEPES pH 7.5; samples 20 μM each, incubated at 4°C for 1 h before loading; also GajA pre-incubated with increasing amounts of GajB; conditions: both partners purified
[6] = biological target: B1; assay: SEC-MALS; GajA pre-incubated with an excess of GajB (molar ratio 4:8); Superdex 200 Increase 10/300 GL, 300 mM NaCl, 2 mM DTT, 5% glycerol, 20 mM HEPES pH 7.5, 25 °C; conditions: both partners purified
UvrD = biological target: T2, UvrD (Escherichia coli DH5alpha, UniProt P03018 1-720); assay: EMSA; 10 uM protein, 5 uM DNA, 5 mM Mg2+, no ATP; EMSA: 5 mM MgCl2, 1 mM DTT, 0.75 uM BSA, 20 mM Tris-HCl pH 7.5, 25 C, 90 min; 2% agarose gel, ethidium bromide; conditions: protein: recombinant; tags: N-terminal His6-MBP removed with TEV protease (as for GajB); label: fluorescein on the 25-mer in helicase assay; 25 bp duplex, 3' overhang 15 nt (T15) on strand 2
T2 sequence: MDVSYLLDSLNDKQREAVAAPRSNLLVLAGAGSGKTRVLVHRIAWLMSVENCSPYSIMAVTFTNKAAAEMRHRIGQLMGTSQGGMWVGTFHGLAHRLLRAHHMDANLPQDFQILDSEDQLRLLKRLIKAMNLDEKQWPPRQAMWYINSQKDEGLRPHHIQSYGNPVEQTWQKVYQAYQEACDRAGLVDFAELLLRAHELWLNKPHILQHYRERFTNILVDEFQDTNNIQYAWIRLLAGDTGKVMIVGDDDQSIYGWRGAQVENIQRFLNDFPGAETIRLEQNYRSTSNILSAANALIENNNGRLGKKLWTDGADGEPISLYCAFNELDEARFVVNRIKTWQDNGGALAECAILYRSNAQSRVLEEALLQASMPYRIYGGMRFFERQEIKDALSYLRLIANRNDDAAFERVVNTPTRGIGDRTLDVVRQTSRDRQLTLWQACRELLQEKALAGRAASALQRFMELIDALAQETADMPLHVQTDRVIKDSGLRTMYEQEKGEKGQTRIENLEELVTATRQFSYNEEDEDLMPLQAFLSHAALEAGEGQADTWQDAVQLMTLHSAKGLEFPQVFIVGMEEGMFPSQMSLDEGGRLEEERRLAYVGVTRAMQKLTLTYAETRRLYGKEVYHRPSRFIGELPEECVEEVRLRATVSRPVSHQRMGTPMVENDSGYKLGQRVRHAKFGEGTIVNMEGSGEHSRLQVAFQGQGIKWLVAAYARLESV

GajB = biological target: T3, GajB (Bacillus cereus VD045, UniProt J8HQ06 1-494); assay: as above; conditions: protein: recombinant; tags: N-terminal His6-MBP removed with TEV protease; label: fluorescein on the 25-mer in helicase assay; 25 bp duplex, 3' overhang 15 nt (T15) on strand 2
T3 sequence: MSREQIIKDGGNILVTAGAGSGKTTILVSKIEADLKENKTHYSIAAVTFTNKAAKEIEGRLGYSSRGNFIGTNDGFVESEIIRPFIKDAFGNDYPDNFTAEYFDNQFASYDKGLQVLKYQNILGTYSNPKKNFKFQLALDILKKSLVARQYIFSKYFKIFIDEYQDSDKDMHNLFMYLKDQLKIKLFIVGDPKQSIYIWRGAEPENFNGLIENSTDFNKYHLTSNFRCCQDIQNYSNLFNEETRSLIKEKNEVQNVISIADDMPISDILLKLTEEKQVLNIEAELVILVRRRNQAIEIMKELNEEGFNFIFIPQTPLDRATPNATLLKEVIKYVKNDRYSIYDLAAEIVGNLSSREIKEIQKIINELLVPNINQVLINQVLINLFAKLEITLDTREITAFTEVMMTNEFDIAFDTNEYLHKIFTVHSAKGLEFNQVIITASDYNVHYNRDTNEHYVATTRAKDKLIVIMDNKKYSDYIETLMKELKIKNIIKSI

GajA;GajB = biological target: T4, GajA;GajB (Bacillus cereus VD045;Bacillus cereus …, UniProt J8H9C1;J8HQ06 1-578;1-494, |); assay: as above; conditions: protein: recombinant;recombinant; chain copies: 4;4; label: fluorescein on the 25-mer in helicase assay; 25 bp duplex, 3' overhang 15 nt (T15) on strand 2
T4 sequence 1: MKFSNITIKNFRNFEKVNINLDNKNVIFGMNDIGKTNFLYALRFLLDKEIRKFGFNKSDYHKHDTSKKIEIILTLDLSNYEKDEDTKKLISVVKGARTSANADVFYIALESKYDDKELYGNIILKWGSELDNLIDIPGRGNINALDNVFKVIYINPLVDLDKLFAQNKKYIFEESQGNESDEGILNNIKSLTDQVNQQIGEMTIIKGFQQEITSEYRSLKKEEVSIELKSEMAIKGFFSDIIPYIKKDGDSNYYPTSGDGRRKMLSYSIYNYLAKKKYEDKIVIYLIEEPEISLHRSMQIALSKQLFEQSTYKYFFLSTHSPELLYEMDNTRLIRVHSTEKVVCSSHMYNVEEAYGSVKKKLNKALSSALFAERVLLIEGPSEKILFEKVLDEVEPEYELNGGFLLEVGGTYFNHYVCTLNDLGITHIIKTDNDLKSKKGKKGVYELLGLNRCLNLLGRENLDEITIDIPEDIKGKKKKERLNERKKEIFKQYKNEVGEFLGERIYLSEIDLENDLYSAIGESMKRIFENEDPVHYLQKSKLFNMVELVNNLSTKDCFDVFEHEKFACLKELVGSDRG
T4 sequence 2: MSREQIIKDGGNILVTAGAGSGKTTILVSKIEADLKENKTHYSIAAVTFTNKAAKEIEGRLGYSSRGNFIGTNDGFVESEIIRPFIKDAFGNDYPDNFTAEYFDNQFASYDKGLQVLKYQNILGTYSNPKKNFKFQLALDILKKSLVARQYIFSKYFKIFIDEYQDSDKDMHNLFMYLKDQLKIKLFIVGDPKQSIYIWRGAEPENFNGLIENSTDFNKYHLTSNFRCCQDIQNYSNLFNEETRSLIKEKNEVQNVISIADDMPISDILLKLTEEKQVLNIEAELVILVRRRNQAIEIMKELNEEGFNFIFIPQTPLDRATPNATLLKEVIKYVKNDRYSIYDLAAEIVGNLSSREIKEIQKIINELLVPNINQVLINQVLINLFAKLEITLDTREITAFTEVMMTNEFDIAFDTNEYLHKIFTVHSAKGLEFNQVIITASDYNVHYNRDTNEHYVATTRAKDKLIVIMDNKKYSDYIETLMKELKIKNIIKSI

B1 was tested, and the “stoichiometry N” value [1] was about 1, the “stoichiometry N” value [2] was 4 and the Kd [3] was 54.3 nM and 36.9 nM.

For B2, the Kd [4] was about 46.4 nM, the “stoichiometry N” value [5] was 4 GajB monomers per GajA tetramer and the “stoichiometry N” value [6] was 4 GajB monomers per GajA tetramer (4:4).

B3: 3'-tailed dsDNA (dsDNA)
DNA 1: TCGGTACGACCTGCGAGCACTGCTT
DNA 2: AAGCAGTGCTCGCAGGTCGTACCGATTTTTTTTTTTTTTT
B3: binds (UvrD); no binding (GajB); no binding (GajA;GajB).
